These are literature values, as cited in paper doi:10.1101/2022.07.01.498456.

One data set concerns the target Asp52 (UniProt position 70, TDGSTDYGILQ). Put plainly: other. Conditions: native HEWL, ligand-free (inferred; not explicitly stated).
Another data set concerns the target Glu35 (UniProt position 53, CAAKFESNFNT). Put plainly: other. The following applies: native HEWL, ligand-free (inferred; not explicitly stated).

For the substance “Hen egg-white lysozyme (lysozyme C) (Gallus gallus)”, the figures for the pKa with Asp52 and with Glu35 were 3.6 and 6.2, respectively.
